Experimental data: patent US20240294668A1 (SHANGHAI SYNVIDA BIOTECHNOLOGY, published 2024)

Experiments:
[1] = biological target: T1, human FIXa (activated coagulation factor IX) (human, UniProt P00740 47-191; P00740 227-461); test: cell-based or functional assay
[2] = biological target: T1, human FIXa (activated coagulation …); test: ELISA, FIXa antigen coated on the plate, anti-mouse secondary antibody, OD450
Method: After culturing hybridoma cells for 7 days, ELISA was used for detecting positive antibodies. 0.1 μg/100 μl of FIXa antigen was coated on an ELISA plate (CORNING), incubated at 37° C. for 1.5 h; then blocked with 2% BSA at 37° C. for 1 h; and then primary antibody, the supernatant of cultured cells, was added and incubated at 37° C. for 1.5 h. After that, mouse secondary antibody was added and incubated at 37° C. for 30 min. Finally, chromogenic substrate TMB (Thermo) was added for 5 min at room temperature in dark, then stop solution 2M H₂SO₄ was added to terminate the reaction. Antibody-positive cell lines were screened according to the absorbance value measured at 450 nm by a spectrophotometer (Thermo Fisher scientific company). Then the cell lines were cultured for cloning in a semi-solid medium ([…] company), with single clones selected into 96-well plates after 7 days. […]
Following the instructions provided in the Sigma company's subtype detection kit, the antigen was coated, blocked, incubated with primary antibody (0.1 μg/100 μl), incubated with isotype-specific reagent at room temperature for 30 minutes, incubated with secondary antibody (R-antiGoat-HRP) for chromogen development, with stop solution added to terminate the reaction, and finally the absorbance was measured at 450 nm. […]

T1 sequence (P00740 47-191 limits assumed, chain 1 of 2): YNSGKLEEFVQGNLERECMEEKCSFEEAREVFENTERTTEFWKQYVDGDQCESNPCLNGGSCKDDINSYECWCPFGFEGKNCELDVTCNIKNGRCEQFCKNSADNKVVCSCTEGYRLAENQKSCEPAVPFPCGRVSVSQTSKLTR
T1 sequence (P00740 227-461 limits assumed, chain 2 of 2): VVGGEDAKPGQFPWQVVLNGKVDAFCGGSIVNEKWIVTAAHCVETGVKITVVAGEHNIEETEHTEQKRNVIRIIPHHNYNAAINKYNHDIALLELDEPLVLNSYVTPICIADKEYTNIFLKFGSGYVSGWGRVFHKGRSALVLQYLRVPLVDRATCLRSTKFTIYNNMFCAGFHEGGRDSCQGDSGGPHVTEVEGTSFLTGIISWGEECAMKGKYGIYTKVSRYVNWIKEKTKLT

- activated partial thromboplastin time (APTT), IC50 [1]: 7.71 µg/mL
- activated partial thromboplastin time (APTT), fold over control [1]: 3.5 times
- EC50 [2]: 0.0947 µg/mL
B1: FIXa-4 antibody (antibody, V domains shown)
VH: QVTLKESGPGILKPSQTLSLTCSFSGFSLNTPGMGVGWIRQPSGKGLEWLAHIWWDDDKYYNPSLKSQLTISKDTSRNQVFLKITSVDTADTATYYCARSDDVSYALDYWGQGTSVTVSS
VL: DIQMTQSPASLSASVGETVTITCRASENIDSYLAWYQQKQGKSPQLLVYNAKTLADGVPSRFSGSGSGTQFSLKIDSLQPEDFGSHYCQHHDGTTWTFGGGTKLEIK
notes: A subtype test is described, but the isotype and constant regions are not reported; also called anti-FIXa monoclonal antibody; FIX-4 antibody
